Starred links: 1 amine or outer side, 2 acyl side, 3 side chain; linkers in the order of their positions; H or OH if unused. Non-standard residues stand in square brackets, D forms with d. *: point of attachment. Pipz(1-CH2CO,4-CH2CH2NH) = O=C(CN1CCN(CCN[*:1])CC1)[*:2]; C18 diacid = O=C(O)CCCCCCCCCCCCCCCCC(=O)*; γGlu = O=C(O)[C@H](CCC(=O)[*:2])N[*:1]; 3Pal = N[C@@H](Cc1cccnc1)C(=O)O; 4Pal = N[C@@H](Cc1ccncc1)C(=O)O; NMeL = CN[C@@H](CC(C)C)C(=O)O; NMeA = CN[C@@H](C)C(=O)O; Nle = CCCC[C@H](N)C(=O)O; Sar = CNCC(=O)O
T1: human neuromedin U receptor 1 (human, UniProt Q9HB89 24-426)
T1 sequence (looked up): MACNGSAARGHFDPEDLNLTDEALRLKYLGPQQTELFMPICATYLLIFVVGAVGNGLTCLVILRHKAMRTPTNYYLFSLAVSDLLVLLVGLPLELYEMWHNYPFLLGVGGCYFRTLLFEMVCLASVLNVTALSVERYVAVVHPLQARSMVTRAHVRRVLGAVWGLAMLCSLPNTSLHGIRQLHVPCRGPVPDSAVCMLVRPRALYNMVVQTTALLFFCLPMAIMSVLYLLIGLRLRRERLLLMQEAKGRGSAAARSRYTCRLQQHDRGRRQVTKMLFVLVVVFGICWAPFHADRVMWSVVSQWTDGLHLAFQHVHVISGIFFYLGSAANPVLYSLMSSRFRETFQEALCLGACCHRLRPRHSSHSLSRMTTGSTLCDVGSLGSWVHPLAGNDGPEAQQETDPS


Target: T1, human neuromedin U receptor 1
Test: cell-based or functional assay

Row | Binder | EC50 (hNMUR1) buffer [nM]
1 | {C18 diacid}-[γGlu][γGlu][γGlu][Sar][Sar][Sar][Sar][Sar][Sar][Sar][Sar][Sar][Sar][Sar][Sar][Sar][Sar][Sar][Pipz(1-CH2CO,4-CH2CH2NH)]YF[NMeL][Nle][4Pal][NMeA]RG-NH2 (SMILES CCCC[C@H](NC(=O)[C@H](CC(C)C)N(C)C(=O)[C@H](Cc1ccccc1)NC(=O)[C@H](Cc1ccc(O)cc1)NC(=O)CN1CCN(CCNC(=O)CN(C)C(=O)CN(C)C(=O)CN(C)C(=O)CN(C)C(=O)CN(C)C(=O)CN(C)C(=O)CN(C)C(=O)CN(C)C(=O)CN(C)C(=O)CN(C)C(=O)CN(C)C(=O)CN(C)C(=O)CN(C)C(=O)CN(C)C(=O)CN(C)C(=O)CC[C@H](NC(=O)CC[C@H](NC(=O)CC[C@H](NC(=O)CCCCCCCCCCCCCCCCC(=O)O)C(=O)O)C(=O)O)C(=O)O)CC1)C(=O)N[C@@H](Cc1ccncc1)C(=O)N(C)[C@@H](C)C(=O)N[C@@H](CCCNC(=N)N)C(=O)NCC(N)=O) [C18DA-gGlu3-Sar15-AEPipAc-Tyr-Phe-NMeLeu-Nle-4Pal-NMeAla-Arg-Gly-NH2] | > 1000
2 | EEEXXXXXXXXXXYFLXRARG (HELM PEPTIDE1{[O=C(O)CCCCCCCCCCCCCCCCCCC(=O)[*:2]].[gGlu].[gGlu].[gGlu].[Sar].[Sar].[Sar].[Sar].[Sar].[Sar].[Sar].[Sar].[Sar].[O=C(CN1CCN(CCN[*:1])CC1)[*:2]].Y.F.[meL].[Nle].R.[meA].R.G.[am]}$$$$V2.0; SMILES CCCC[C@H](NC(=O)[C@H](CC(C)C)N(C)C(=O)[C@H](Cc1ccccc1)NC(=O)[C@H](Cc1ccc(O)cc1)NC(=O)CN1CCN(CCNC(=O)CN(C)C(=O)CN(C)C(=O)CN(C)C(=O)CN(C)C(=O)CN(C)C(=O)CN(C)C(=O)CN(C)C(=O)CN(C)C(=O)CN(C)C(=O)CC[C@H](NC(=O)CC[C@H](NC(=O)CC[C@H](NC(=O)CCCCCCCCCCCCCCCCCCC(=O)O)C(=O)O)C(=O)O)C(=O)O)CC1)C(=O)N[C@@H](CCCNC(=N)N)C(=O)N(C)[C@@H](C)C(=O)N[C@@H](CCCNC(=N)N)C(=O)NCC(N)=O) [C20DA-gGlu3-Sar9-AEPipAc-Tyr-Phe-NMeLeu-Nle-Arg-NMeAla-Arg-Gly-NH2] | 440
3 | EEXXXXXXXXXXYFLXRARG (HELM PEPTIDE1{[O=C(O)CCCCCCCCCCCCCCCCC(=O)[*:2]].[gGlu].[gGlu].[Sar].[Sar].[Sar].[Sar].[Sar].[Sar].[Sar].[Sar].[Sar].[O=C(CN1CCN(CCN[*:1])CC1)[*:2]].Y.F.[meL].[Nle].R.[meA].R.G.[am]}$$$$V2.0; SMILES CCCC[C@H](NC(=O)[C@H](CC(C)C)N(C)C(=O)[C@H](Cc1ccccc1)NC(=O)[C@H](Cc1ccc(O)cc1)NC(=O)CN1CCN(CCNC(=O)CN(C)C(=O)CN(C)C(=O)CN(C)C(=O)CN(C)C(=O)CN(C)C(=O)CN(C)C(=O)CN(C)C(=O)CN(C)C(=O)CN(C)C(=O)CC[C@H](NC(=O)CC[C@H](NC(=O)CCCCCCCCCCCCCCCCC(=O)O)C(=O)O)C(=O)O)CC1)C(=O)N[C@@H](CCCNC(=N)N)C(=O)N(C)[C@@H](C)C(=O)N[C@@H](CCCNC(=N)N)C(=O)NCC(N)=O) [C18DA-gGlu2-Sar9-AEPipAc-Tyr-Phe-NMeLeu-Nle-Arg-NMeAla-Arg-Gly-NH2] | 550
4 | EEXXXXXXXXXXYFLXRPRG (HELM PEPTIDE1{[O=C(O)CCCCCCCCCCCCCCCCC(=O)[*:2]].[gGlu].[gGlu].[Sar].[Sar].[Sar].[Sar].[Sar].[Sar].[Sar].[Sar].[Sar].[O=C(CN1CCN(CCN[*:1])CC1)[*:2]].Y.F.[meL].[Nle].R.P.R.G.[am]}$$$$V2.0; SMILES CCCC[C@H](NC(=O)[C@H](CC(C)C)N(C)C(=O)[C@H](Cc1ccccc1)NC(=O)[C@H](Cc1ccc(O)cc1)NC(=O)CN1CCN(CCNC(=O)CN(C)C(=O)CN(C)C(=O)CN(C)C(=O)CN(C)C(=O)CN(C)C(=O)CN(C)C(=O)CN(C)C(=O)CN(C)C(=O)CN(C)C(=O)CC[C@H](NC(=O)CC[C@H](NC(=O)CCCCCCCCCCCCCCCCC(=O)O)C(=O)O)C(=O)O)CC1)C(=O)N[C@@H](CCCNC(=N)N)C(=O)N1CCC[C@H]1C(=O)N[C@@H](CCCNC(=N)N)C(=O)NCC(N)=O) [C18DA-gGlu2-Sar9-AEPipAc-Tyr-Phe-NMeLeu-Nle-Arg-Pro-Arg-Gly-NH2] | 90
5 | EEEXXXXXXXXXXYFLXXARG (HELM PEPTIDE1{[O=C(O)CCCCCCCCCCCCCCCCCCC(=O)[*:2]].[gGlu].[gGlu].[gGlu].[Sar].[Sar].[Sar].[Sar].[Sar].[Sar].[Sar].[Sar].[Sar].[O=C(CN1CCN(CCN[*:1])CC1)[*:2]].Y.F.[meL].[Nle].[Dab].[meA].R.G.[am]}$$$$V2.0; SMILES CCCC[C@H](NC(=O)[C@H](CC(C)C)N(C)C(=O)[C@H](Cc1ccccc1)NC(=O)[C@H](Cc1ccc(O)cc1)NC(=O)CN1CCN(CCNC(=O)CN(C)C(=O)CN(C)C(=O)CN(C)C(=O)CN(C)C(=O)CN(C)C(=O)CN(C)C(=O)CN(C)C(=O)CN(C)C(=O)CN(C)C(=O)CC[C@H](NC(=O)CC[C@H](NC(=O)CC[C@H](NC(=O)CCCCCCCCCCCCCCCCCCC(=O)O)C(=O)O)C(=O)O)C(=O)O)CC1)C(=O)N[C@@H](CCN)C(=O)N(C)[C@@H](C)C(=O)N[C@@H](CCCNC(=N)N)C(=O)NCC(N)=O) [C20DA-gGlu3-Sar9-AEPipAc-Tyr-Phe-NMeLeu-Nle-Dbu-NMeAla-Arg-Gly-NH2] | > 1000
6 | {C18 diacid}-[γGlu][γGlu][γGlu][Sar][Sar][Sar][Sar][Sar][Sar][Sar][Sar][Sar][Sar][Sar][Sar][Sar][Sar][Sar][Pipz(1-CH2CO,4-CH2CH2NH)]YF[NMeL][Nle][3Pal][NMeA]RG-NH2 (SMILES CCCC[C@H](NC(=O)[C@H](CC(C)C)N(C)C(=O)[C@H](Cc1ccccc1)NC(=O)[C@H](Cc1ccc(O)cc1)NC(=O)CN1CCN(CCNC(=O)CN(C)C(=O)CN(C)C(=O)CN(C)C(=O)CN(C)C(=O)CN(C)C(=O)CN(C)C(=O)CN(C)C(=O)CN(C)C(=O)CN(C)C(=O)CN(C)C(=O)CN(C)C(=O)CN(C)C(=O)CN(C)C(=O)CN(C)C(=O)CN(C)C(=O)CC[C@H](NC(=O)CC[C@H](NC(=O)CC[C@H](NC(=O)CCCCCCCCCCCCCCCCC(=O)O)C(=O)O)C(=O)O)C(=O)O)CC1)C(=O)N[C@@H](Cc1cccnc1)C(=O)N(C)[C@@H](C)C(=O)N[C@@H](CCCNC(=N)N)C(=O)NCC(N)=O) [C18DA-gGlu3-Sar15-AEPipAc-Tyr-Phe-NMeLeu-Nle-3Pal-NMeAla-Arg-Gly-NH2] | > 1000

Results, then the binder that gave them:

Row | EC50 (hNMUR1) buffer [nM] | Binder
7 | > 1000 | EEEXXXXXXXXXXXXXYFLXXARG (HELM PEPTIDE1{[O=C(O)CCCCCCCCCCCCCCCCCCC(=O)[*:2]].[gGlu].[gGlu].[gGlu].[Sar].[Sar].[Sar].[Sar].[Sar].[Sar].[Sar].[Sar].[Sar].[Sar].[Sar].[Sar].[O=C(CN1CCN(CCN[*:1])CC1)[*:2]].Y.F.[meL].[Nle].[Dab].[meA].R.G.[am]}$$$$V2.0; SMILES CCCC[C@H](NC(=O)[C@H](CC(C)C)N(C)C(=O)[C@H](Cc1ccccc1)NC(=O)[C@H](Cc1ccc(O)cc1)NC(=O)CN1CCN(CCNC(=O)CN(C)C(=O)CN(C)C(=O)CN(C)C(=O)CN(C)C(=O)CN(C)C(=O)CN(C)C(=O)CN(C)C(=O)CN(C)C(=O)CN(C)C(=O)CN(C)C(=O)CN(C)C(=O)CN(C)C(=O)CC[C@H](NC(=O)CC[C@H](NC(=O)CC[C@H](NC(=O)CCCCCCCCCCCCCCCCCCC(=O)O)C(=O)O)C(=O)O)C(=O)O)CC1)C(=O)N[C@@H](CCN)C(=O)N(C)[C@@H](C)C(=O)N[C@@H](CCCNC(=N)N)C(=O)NCC(N)=O) [C20DA-gGlu3-Sar12-AEPipAc-Tyr-Phe-NMeLeu-Nle-Dbu-NMeAla-Arg-Gly-NH2]
8 | 540 | EEEXXXXXXXXXXYFLXXPRG (HELM PEPTIDE1{[O=C(O)CCCCCCCCCCCCCCCCCCC(=O)[*:2]].[gGlu].[gGlu].[gGlu].[Sar].[Sar].[Sar].[Sar].[Sar].[Sar].[Sar].[Sar].[Sar].[O=C(CN1CCN(CCN[*:1])CC1)[*:2]].Y.F.[meL].[Nle].[Dab].P.R.G.[am]}$$$$V2.0; SMILES CCCC[C@H](NC(=O)[C@H](CC(C)C)N(C)C(=O)[C@H](Cc1ccccc1)NC(=O)[C@H](Cc1ccc(O)cc1)NC(=O)CN1CCN(CCNC(=O)CN(C)C(=O)CN(C)C(=O)CN(C)C(=O)CN(C)C(=O)CN(C)C(=O)CN(C)C(=O)CN(C)C(=O)CN(C)C(=O)CN(C)C(=O)CC[C@H](NC(=O)CC[C@H](NC(=O)CC[C@H](NC(=O)CCCCCCCCCCCCCCCCCCC(=O)O)C(=O)O)C(=O)O)C(=O)O)CC1)C(=O)N[C@@H](CCN)C(=O)N1CCC[C@H]1C(=O)N[C@@H](CCCNC(=N)N)C(=O)NCC(N)=O) [C20DA-gGlu3-Sar9-AEPipAc-Tyr-Phe-NMeLeu-Nle-Dbu-Pro-Arg-Gly-NH2]
9 | 670 | EEEXXXXXXXXXXXXXYFLXRARG (HELM PEPTIDE1{[O=C(O)CCCCCCCCCCCCCCCCCCC(=O)[*:2]].[gGlu].[gGlu].[gGlu].[Sar].[Sar].[Sar].[Sar].[Sar].[Sar].[Sar].[Sar].[Sar].[Sar].[Sar].[Sar].[O=C(CN1CCN(CCN[*:1])CC1)[*:2]].Y.F.[meL].[Nle].R.[meA].R.G.[am]}$$$$V2.0; SMILES CCCC[C@H](NC(=O)[C@H](CC(C)C)N(C)C(=O)[C@H](Cc1ccccc1)NC(=O)[C@H](Cc1ccc(O)cc1)NC(=O)CN1CCN(CCNC(=O)CN(C)C(=O)CN(C)C(=O)CN(C)C(=O)CN(C)C(=O)CN(C)C(=O)CN(C)C(=O)CN(C)C(=O)CN(C)C(=O)CN(C)C(=O)CN(C)C(=O)CN(C)C(=O)CN(C)C(=O)CC[C@H](NC(=O)CC[C@H](NC(=O)CC[C@H](NC(=O)CCCCCCCCCCCCCCCCCCC(=O)O)C(=O)O)C(=O)O)C(=O)O)CC1)C(=O)N[C@@H](CCCNC(=N)N)C(=O)N(C)[C@@H](C)C(=O)N[C@@H](CCCNC(=N)N)C(=O)NCC(N)=O) [C20DA-gGlu3-Sar12-AEPipAc-Tyr-Phe-NMeLeu-Nle-Arg-NMeAla-Arg-Gly-NH2]
